According to patent US20240002500A1 (GUANGDONG FAPON BIOPHARMA, published 2024):
Positions count from the first letter of the chain named.

B1: 14Tigit-1-1 mouse monoclonal antibody (antibody, V domains shown)
VH: DVQLQESGPGLVKPSQSLSLTCTVTGYSITSDYAWNWIRQFPGNKLEWMGYISYSGSTRSNPSLKSRISITRDTSKNQFFLQLNSMTAEDTATYYCGGWEVRNYYAMDYWGQGTSVTVSS
VL: DIVMTQSHKFMSTSVGDRVSITCKASQHVSTAVAWYQQKPGQSPKLLIYSASYRYTGVPDRFTGSGSGTDFTFTISSVQAEDLAVYYCQQHYNTPWTFGGGTKLEIKR
notes: Mouse monoclonal antibody from hybridoma
B2: 3Tigit-12 mouse monoclonal antibody (antibody, V domains shown)
VH: QVQLQQSGAELVRPGTSVKMSCKAAGYTFTNYWIGWVKQRPGHGLEWIGDIYPGGGYTNYDEKFKGKATLTADTSSRTAYMQLSSLTSEDSAIYHCVNGGYGSTYGYFDVWGAGTTVTVSS
VL: DIVMSQSPSSLPVSVGEKVTMSCKSSQSLLFSSDQKNYLAWYQQKPGQSPKLLIYWASTRESGVPDRLTGSGSGTDFTLTISSVKAEDLAVYYCQQYHKYPFTFGGGTKLEIKR
notes: as for B1
B3: 3Tigit-16 mouse monoclonal antibody (antibody, V domains shown)
VH: EVQLQQSGPELVKPGASVKMSCKASGFTFTDYFMDWVKQSRGASFEWIGRLNPNNGRTSYNQKFKGKATLTVDKSSSTAYMELNSLTSEDSAVYYCARGDLGRWYFDVWGAGTTVTVSS
VL: QIVLTQSPAIMSASPGEKVTMTCSASSSVSYMHWYQQKSGTSPKRWIYDTSKLASGVPTRFSGSGSGTSYSLTISSMEAEDAASYFCQQWSSNSLTFGAGTKLELKR
notes: as for B1
B4: 3Tigit-29 mouse monoclonal antibody (antibody, V domains shown)
VH: EVQLQQSGPELVKPGASVKISCKASGYTFTDYNMHWVKQSLGKSLEWIGYVNSFNGNTGYSQKFKSKVTLTVDRSSRTAYMDLRSLTSEDSAVFYCARSSRGGFAYWGQGTLVTVSA
VL: B3 VL with T59A, G65V, S84T, F86Y
notes: as for B1
B5: Tigit-5 mouse monoclonal antibody (antibody, V domains shown)
VH: QVQLQQPGAELVRPGASVKLSCKASGYSFTSYWMNWVKQRPGQGLEWIGMIRPSDSETRLNQMFKDKATLTVDKSSSTAYMQLSSPTSDDSAVYYCAGIHDYGHGAYWGQGTLVTVSA
VL: DIQMIQSPASLSVSVGETVTITCRASENIYSNLAWYQQKQGKSPQLLVYAASHLPDGVPSRFSGSGSGTQYSLKINSLQSEDFGSYYCQHFWGTPRTFGGGTKLEIKR
notes: as for B1

target: T1, full-length human TIGIT on cells (human, UniProt Q495A1 22-244); assay: FACS titration on CHO-hTIGIT cells, PE goat anti-mouse IgG
T1 construct: whole, on cells; The same protein is used for CHO-hTIGIT, PBMC and NK92-hTIGIT; the cells are named under assay; also called CHO-hTIGIT; hTIGIT
T1 sequence (looked up): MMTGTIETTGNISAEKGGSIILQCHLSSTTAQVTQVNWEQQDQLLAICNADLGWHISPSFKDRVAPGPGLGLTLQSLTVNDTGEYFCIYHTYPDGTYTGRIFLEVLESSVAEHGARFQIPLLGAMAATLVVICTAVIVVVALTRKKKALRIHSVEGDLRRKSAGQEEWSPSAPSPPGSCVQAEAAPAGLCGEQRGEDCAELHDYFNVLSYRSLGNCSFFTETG
Description: The CHO-engineered cells CHO-hTIGIT cells recombinantly expressing full-length human TIGIT to be detected were counted, centrifuged at 300 g for 5 min, resuspended in an FCM buffer and cell density was adjusted to 4E+06 cell/mL for later use. A sample to be detected (including a positive control antibody and a mouse monoclonal antibody) was diluted with the FCM buffer to 20 μg/mL, and then the FCM buffer was used to perform 3× serial dilutions of 12 concentration points; and the isotype control antibody was diluted with the FCM buffer to 20 μg/mL. According to an experimental design, in each well, 50 μL of the antibody and 50 μL of the cell (the amount of each cell added into a 96-well V-shaped plate being 2E+05 cells/well) were respectively added in the 96-well V-shaped plate; and incubation in dark was performed on ice for 30 min. Centrifugation (300 g/5 min) was performed; supernatant was discarded; 200 μL of the FCM buffer was added for washing once; centrifugation (300 g/5 min) was performed; and the supernatant was discarded. […] Centrifugation (300 g/5 min) was performed; supernatant was discarded; 200 μL of the FCM buffer was added once for washing once; centrifugation (300 g/5 min) was performed; and the supernatant was discarded. 100 μL of the 1×PBS was added for resuspending, and on-machine detection was performed.

Q: Which EC50 does the source give for B1 here?
A: 0.452 nM

Q: For B2, which EC50 is on record?
A: 0.473 nM

Q: B3 was tested. Which EC50 did it give?
A: 0.383 nM

Q: For B4, which EC50 is on record?
A: 0.388 nM

Q: How did the EC50 turn out when B5 was run?
A: 0.197 nM

target: T2, hTIGIT-hFc (human, UniProt Q495A1 22-141); assay: FACS blocking on CHO-hCD112 cells; span of the fitted curve, unit from the y axis
T2 construct: also called antigen protein hTIGIT-hFc; human TIGIT recombinant protein carrying a human Fc tag; not shown: human Fc tag
T2 sequence (looked up): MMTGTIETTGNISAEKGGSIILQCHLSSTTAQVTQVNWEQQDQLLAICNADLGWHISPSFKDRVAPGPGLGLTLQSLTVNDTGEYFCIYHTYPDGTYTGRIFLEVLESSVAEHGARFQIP
Description: (§1) The CHO-engineered cell CHO-hCD112 cells recombinantly expressing full-length human CD112 were counted; centrifugated at 300 g for 5 min; resuspended with an FCM buffer; and cell density was adjusted to 4E+06 cell/mL for later use. […] According to an experimental design, in each well, 50 μL of the antigen protein and 50 μL of the cell (the volume of each cell added into a 96-well V-shaped plate being 2E+05 cell/well) were respectively added in the 96-well V-shaped plate; and incubation was performed in dark on ice for 30 min. Centrifugation (300 g/5 min) was performed; supernatant was discarded; 200 μL of the FCM buffer was added for washing once; centrifugation (300 g/5 min) was performed; and the supernatant was discarded. The antibody was added to the 96-well V-shaped plate (in 100 μL/well); and incubation was performed in dark on ice for 30 min. Centrifugation (300 g/5 min) was performed; supernatant was discarded; 200 μL of the FCM buffer was added for washing once; centrifugation (300 g/5 min) was performed; and the supernatant was discarded. Secondary antibodies (APC anti-human IgG Fc, 1:500 dilution) were added to the 96-well V-shaped plate (in 100 μL/well); and incubation was performed in dark on ice for 30 min. Centrifugation (300 g/5 min) was performed; supernatant was discarded; 200 μL of the FCM buffer was added for washing once; centrifugation (300 g/5 min) was performed; and the supernatant was discarded. 100 μL of the 1×PBS was added for resuspending, and on-machine detection was performed.

Q: B2 was tested. Which Span did it give?
A: 278 MFI-APC

Q: B3 was tested. Which Span did it give?
A: 215 MFI-APC

Q: For B4, which Span is on record?
A: 327 MFI-APC

Q: With B5 as the binder, how does the Span read?
A: 212 MFI-APC

target: T2, hTIGIT-hFc; assay: FACS blocking: hTIGIT-hFc bound on CHO-hCD112 cells, then antibody, APC anti-human IgG Fc; blocked partner CD112; unit from the x axis Log[µg/mL]
Description: as §1

Q: B2 was tested. Which IC50 did it give?
A: 0.191 µg/mL

Q: How did the IC50 turn out when B3 was run?
A: 0.265 µg/mL

Q: B4 was tested. Which IC50 did it give?
A: 0.196 µg/mL

Q: B5 was tested. Which IC50 did it give?
A: 0.143 µg/mL

target: T2, hTIGIT-hFc; assay: FACS blocking: hTIGIT-hFc bound on U2-OS cells (PVR and CD112), then antibody, APC anti-human IgG Fc; first row of the table, row head not given; unit from the x axis Log[µg/mL]
Description: as §1, with “U2-OS” for “The CHO-engineered cell CHO-hCD112”, “to be detected (human osteosarcoma cells, naturally and highly” for “recombinantly”, “PVR and” for “full-length human”, “CD112 by means of detection)” for “CD112”

Q: With B2 as the binder, how does the IC50 read?
A: 0.543 µg/mL

Q: How did the IC50 turn out when B3 was run?
A: 0.636 µg/mL

Q: Which IC50 does the source give for B4 here?
A: 0.628 µg/mL
